# Test results: PMC8062265
# Biological target: Recombinant 1-158 a.a. domain of TMCC3 protein (human) (UniProt Q9ULS5)
# Test: Luminex immunosandwich assay; cell-free; protein coupled onto Luminex beads, incubated with various concentrations of recombinant AKT, washed, detected with fluorescence labeled anti-AKT antibody (MFI, n = 4)
# UniProt Q9ULS5, sequence (Q9ULS5 1-158): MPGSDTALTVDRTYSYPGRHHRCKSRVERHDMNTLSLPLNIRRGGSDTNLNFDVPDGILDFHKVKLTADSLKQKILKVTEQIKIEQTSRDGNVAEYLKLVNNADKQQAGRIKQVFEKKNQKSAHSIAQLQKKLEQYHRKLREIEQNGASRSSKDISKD
substance,measurement,value
recombinant AKT (from UniProt P31749 1-480) (natural protein),Kd,1.67 nM
